Measurements as given in article PMC10289200, “Detection of Arc/Arg3.1 oligomers in rat brain: constitutive and synaptic activity-evoked dimer expression in vivo” (Frontiers in Molecular Neuroscience, 2023).

Key:
[1] = biological target: the molecule itself; assay: cross-linking; thiol-cleavable DSP on rat CA tissue; non-reducing SDS-PAGE and immunoblot; crosslinks reversed by DTT
[2] = biological target: T1, DJ-1, endogenous in SH-SY5Y cells (human (endogenous in SH-SY5Y)), Q99497; assay: cross-linking; in situ, 0.2 mM DSG, 10 min, 4 °C, in PBS pH 7.4, harvested SH-SY5Y cells (untreated or carbachol) or cortical neuronal cultures (untreated or BDNF); quenched with 50 mM Tris-HCl; SDS-PAGE with DTT and immunoblot; details: remark: other sources report otherwise
T1 chain: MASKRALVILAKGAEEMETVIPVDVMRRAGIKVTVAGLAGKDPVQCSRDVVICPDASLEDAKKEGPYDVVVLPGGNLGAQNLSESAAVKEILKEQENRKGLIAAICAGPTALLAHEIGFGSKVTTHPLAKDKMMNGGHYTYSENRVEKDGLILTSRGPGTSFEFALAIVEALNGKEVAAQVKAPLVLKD

[3] = biological target: the molecule itself; assay: as above
[4] = biological target: the molecule itself; assay: cross-linking; DSG-crosslinked pooled rat DG (1, 2, 4 h post-HFS), then Arc immunoprecipitation (rabbit anti-Arc antibody or ALFA-H11 nanobody) and Arc immunoblot
[5] = biological target: the molecule itself; assay: cross-linking; in situ/ex vivo, 0.5 mM DSG, 30 min, 37 °C, PBS pH 7.4, ~0.5 mm slices of rat DG, CA or cortex (naive, HFS-LTP or BDNF-LTP); lysis in 1% Triton X-100; SDS-PAGE with DTT and immunoblot
[6] = biological target: the molecule itself; assay: SDS-PAGE and immunoblot without cross-linker; non-crosslinked (DMSO only) cells or tissue, boiled in Laemmli buffer with DTT; species that resist SDS
[7] = biological target: the molecule itself; assay: cross-linking + affinity purification with mass spectrometry; in situ, 0.1 mM DSG, 10 min, 4 °C, mTq2-Arc transfected HEK293FT cells; immunoblot, Arc immunoprecipitation and LC-MS/MS of gel-excised bands (~75, 150, 250, >250 kDa)

B1: DJ-1, endogenous in rat brain tissue (natural protein, rat (endogenous in rat brain tissue), UniProt O88767 1-189, looked up)
chain: MASKRALVILAKGAEEMETVIPVDIMRRAGIKVTVAGLAGKDPVQCSRDVVICPDTSLEEAKTQGPYDVVVLPGGNLGAQNLSESALVKEILKEQENRKGLIAAICAGPTALLAHEVGFGCKVTSHPLAKDKMMNGSHYSYSESRVEKDGLILTSRGPGTSFEFALAIVEALSGKDMANQVKAPLVLKD
notes: DJ-1, endogenous in rat DG, CA and cortical tissue; also called DJ-I; source: endogenous, rat brain tissue (DG, CA, cortex), in tissue / lysate
[1]
  stoichiometry N: 2

B2: DJ-1, endogenous in SH-SY5Y cells, Q99497 1-189 (natural protein)
chain: T1 chain
[2]
  stoichiometry N: 2

B3: Activity-regulated cytoskeleton-associated protein (Arc), endogenous in human SH-SY5Y neuroblastoma cells (natural protein, human (endogenous in SH-SY5Y), UniProt Q7LC44 1-396, looked up)
chain: MELDHRTSGGLHAYPGPRGGQVAKPNVILQIGKCRAEMLEHVRRTHRHLLAEVSKQVERELKGLHRSVGKLESNLDGYVPTSDSQRWKKSIKACLCRCQETIANLERWVKREMHVWREVFYRLERWADRLESTGGKYPVGSESARHTVSVGVGGPESYCHEADGYDYTVSPYAITPPPAAGELPGQEPAEAQQYQPWVPGEDGQPSPGVDTQIFEDPREFLSHLEEYLRQVGGSEEYWLSQIQNHMNGPAKKWWEFKQGSVKNWVEFKKEFLQYSEGTLSREAIQRELDLPQKQGEPLDQFLWRKRDLYQTLYVDADEEEIIQYVVGTLQPKLKRFLRHPLPKTLEQLIQRGMEVQDDLEQAAEPAGPHLPVEDEAETLTPAPNSESVASDRTQPE
notes: Arc (Arg3.1), endogenous in human SH-SY5Y neuroblastoma cells; monomer at ~50 kDa on SDS-PAGE; also called Arg3.1; endogenous Arc; source: endogenous, SH-SY5Y cells (induced with 100 uM carbachol), in cells / lysate
[3]
  stoichiometry N: 2

B4: Arc, endogenous in rat brain tissue (dentate gyrus, hippocampal CA, cortex) (natural protein, rat (endogenous in rat brain tissue), UniProt Q63053 1-396, looked up)
chain: MELDHMTTGGLHAYPAPRGGPAAKPNVILQIGKCRAEMLEHVRRTHRHLLTEVSKQVERELKGLHRSVGKLENNLDGYVPTGDSQRWKKSIKACLCRCQETIANLERWVKREMHVWREVFYRLERWADRLESMGGKYPVGSEPARHTVSVGVGGPEPYCQEADGYDYTVSPYAITPPPAAGELPEQESVGAQQYQSWVPGEDGQPSPGVDTQIFEDPREFLSHLEEYLRQVGGSEEYWLSQIQNHMNGPAKKWWEFKQGSVKNWVEFKKEFLQYSEGTLSREAIQRELDLPQKQGEPLDQFLWRKRDLYQTLYVDAEEEEIIQYVVGTLQPKFKRFLRHPLPKTLEQLIQRGMEVQDGLEQAAEPSVTPLPTEDETEALTPALTSESVASDRTQPE
notes: Arc (Arg3.1), endogenous in adult Sprague-Dawley rat brain tissue; monomer at ~55 kDa on SDS-PAGE; also called Arg3.1; endogenous Arc; source: endogenous, rat brain tissue (DG, CA, cortex), in tissue / lysate
[4]
  stoichiometry N: 2
[5]
  ratio of dimer:monomer in the DSG lane (BDNF-LTP, 2 h): 0.56
  ratio of dimer:monomer in the DSG lane (HFS-LTP, 2 h): 0.4

B5: rArc-StrepII-HA, stably expressed in SH-SY5Y cells (natural protein, UniProt Q63053 1-396, looked up)
chain: B4 chain
notes: Arc printed as rArc in the cassette CMV::rArc-StrepII-HA; the species is not spelt out; monomer at ~60 kDa on SDS-PAGE; also called tagged-Arc; exogenous Arc
[6]
  stoichiometry N: 2

B6: Arc, endogenous in primary cortical neuronal cultures (natural protein, UniProt Q63053 1-396, looked up)
chain: B4 chain
notes: Arc (Arg3.1), endogenous in primary cortical neurons; also called Arg3.1; source: endogenous, primary cortical neuronal cultures (BDNF 50 ng/mL, 2 h), in cells / lysate
[3]
  stoichiometry N: 2

B7: Arc N-terminally fused to monomeric Turquoise 2 (mTq2-Arc) (natural protein, UniProt Q63053 1-396, looked up)
chain: B4 chain
notes: Arc; fusion monomer at ~75 kDa on SDS-PAGE; The crosslinking in HEK293FT cells follows Eriksen et al. (2021); the construct may be described there; also called ectopic Arc; source: HEK293FT, transfected (CMV promoter), in cells / lysate; not shown: monomeric Turquoise 2 (mTq2), N-terminal, kept
[7]
  stoichiometry N: 2
